Measured values: patent US20210388087A1 (Chugai, published 2021)

T1: Human CD3eg linker (human)
T1 construct: Single chain: epsilon and gamma subunits of human CD3 joined by a 29-mer linker, Flag-tag at the C-terminus; also called recombinant human CD3
T1 chain: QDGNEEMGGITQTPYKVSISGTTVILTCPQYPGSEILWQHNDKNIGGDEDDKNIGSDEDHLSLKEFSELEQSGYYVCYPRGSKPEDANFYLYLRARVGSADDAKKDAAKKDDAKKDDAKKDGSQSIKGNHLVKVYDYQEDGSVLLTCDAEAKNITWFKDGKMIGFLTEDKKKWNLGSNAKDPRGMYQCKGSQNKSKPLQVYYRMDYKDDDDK


Molecular target: T1, Human CD3eg linker
Assay: Biacore SPR, vs template H183/L072

fold change of affinity [fold] | Binder
0 | H183/L072 VH W33V (antibody, name in Kabat numbering, V domains shown) VH: QVQLVESGGGLVQPGRSLRLSCAASGFTFSNAVMHWVRQAPGKGLEWVAQIKDKGNAYAAYYAPSVKGRFTISRDDSKNSIYLQMNSLKTEDTAVYYCHYVHYASASTVLPAFGVDAWGQGTTVTVSS VL: DIVMTQSPLSLPVTPGEPASISCQASQELVHMNRNTYLHWYQQKPGQAPRLLIYKVSNRFPGVPDRFSGSGSGTDFTLKISRVEAEDVGVYYCAQGTSVPFTFGQGTKLEIK
0 | H183/L072 VH W33P (antibody, name in Kabat numbering, V domains shown) VH: QVQLVESGGGLVQPGRSLRLSCAASGFTFSNAPMHWVRQAPGKGLEWVAQIKDKGNAYAAYYAPSVKGRFTISRDDSKNSIYLQMNSLKTEDTAVYYCHYVHYASASTVLPAFGVDAWGQGTTVTVSS VL: DIVMTQSPLSLPVTPGEPASISCQASQELVHMNRNTYLHWYQQKPGQAPRLLIYKVSNRFPGVPDRFSGSGSGTDFTLKISRVEAEDVGVYYCAQGTSVPFTFGQGTKLEIK
0 | H183/L072 VH W33N (antibody, name in Kabat numbering, V domains shown) VH: QVQLVESGGGLVQPGRSLRLSCAASGFTFSNANMHWVRQAPGKGLEWVAQIKDKGNAYAAYYAPSVKGRFTISRDDSKNSIYLQMNSLKTEDTAVYYCHYVHYASASTVLPAFGVDAWGQGTTVTVSS VL: DIVMTQSPLSLPVTPGEPASISCQASQELVHMNRNTYLHWYQQKPGQAPRLLIYKVSNRFPGVPDRFSGSGSGTDFTLKISRVEAEDVGVYYCAQGTSVPFTFGQGTKLEIK
0 | H183/L072 VH W33R (antibody, name in Kabat numbering, V domains shown) VH: QVQLVESGGGLVQPGRSLRLSCAASGFTFSNARMHWVRQAPGKGLEWVAQIKDKGNAYAAYYAPSVKGRFTISRDDSKNSIYLQMNSLKTEDTAVYYCHYVHYASASTVLPAFGVDAWGQGTTVTVSS VL: DIVMTQSPLSLPVTPGEPASISCQASQELVHMNRNTYLHWYQQKPGQAPRLLIYKVSNRFPGVPDRFSGSGSGTDFTLKISRVEAEDVGVYYCAQGTSVPFTFGQGTKLEIK
0 | H183/L072 VH W33Q (antibody, name in Kabat numbering, V domains shown) VH: QVQLVESGGGLVQPGRSLRLSCAASGFTFSNAQMHWVRQAPGKGLEWVAQIKDKGNAYAAYYAPSVKGRFTISRDDSKNSIYLQMNSLKTEDTAVYYCHYVHYASASTVLPAFGVDAWGQGTTVTVSS VL: DIVMTQSPLSLPVTPGEPASISCQASQELVHMNRNTYLHWYQQKPGQAPRLLIYKVSNRFPGVPDRFSGSGSGTDFTLKISRVEAEDVGVYYCAQGTSVPFTFGQGTKLEIK
0 | H183/L072 VH W33L (antibody, name in Kabat numbering, V domains shown) VH: QVQLVESGGGLVQPGRSLRLSCAASGFTFSNALMHWVRQAPGKGLEWVAQIKDKGNAYAAYYAPSVKGRFTISRDDSKNSIYLQMNSLKTEDTAVYYCHYVHYASASTVLPAFGVDAWGQGTTVTVSS VL: DIVMTQSPLSLPVTPGEPASISCQASQELVHMNRNTYLHWYQQKPGQAPRLLIYKVSNRFPGVPDRFSGSGSGTDFTLKISRVEAEDVGVYYCAQGTSVPFTFGQGTKLEIK
0 | H183/L072 VH W33I (antibody, name in Kabat numbering, V domains shown) VH: QVQLVESGGGLVQPGRSLRLSCAASGFTFSNAIMHWVRQAPGKGLEWVAQIKDKGNAYAAYYAPSVKGRFTISRDDSKNSIYLQMNSLKTEDTAVYYCHYVHYASASTVLPAFGVDAWGQGTTVTVSS VL: DIVMTQSPLSLPVTPGEPASISCQASQELVHMNRNTYLHWYQQKPGQAPRLLIYKVSNRFPGVPDRFSGSGSGTDFTLKISRVEAEDVGVYYCAQGTSVPFTFGQGTKLEIK
0 | H183/L072 VH W33T (antibody, name in Kabat numbering, V domains shown) VH: QVQLVESGGGLVQPGRSLRLSCAASGFTFSNATMHWVRQAPGKGLEWVAQIKDKGNAYAAYYAPSVKGRFTISRDDSKNSIYLQMNSLKTEDTAVYYCHYVHYASASTVLPAFGVDAWGQGTTVTVSS VL: DIVMTQSPLSLPVTPGEPASISCQASQELVHMNRNTYLHWYQQKPGQAPRLLIYKVSNRFPGVPDRFSGSGSGTDFTLKISRVEAEDVGVYYCAQGTSVPFTFGQGTKLEIK
0 | H183/L072 VH W33M (antibody, name in Kabat numbering, V domains shown) VH: QVQLVESGGGLVQPGRSLRLSCAASGFTFSNAMMHWVRQAPGKGLEWVAQIKDKGNAYAAYYAPSVKGRFTISRDDSKNSIYLQMNSLKTEDTAVYYCHYVHYASASTVLPAFGVDAWGQGTTVTVSS VL: DIVMTQSPLSLPVTPGEPASISCQASQELVHMNRNTYLHWYQQKPGQAPRLLIYKVSNRFPGVPDRFSGSGSGTDFTLKISRVEAEDVGVYYCAQGTSVPFTFGQGTKLEIK
0 | H183/L072 VH W33S (antibody, name in Kabat numbering, V domains shown) VH: QVQLVESGGGLVQPGRSLRLSCAASGFTFSNASMHWVRQAPGKGLEWVAQIKDKGNAYAAYYAPSVKGRFTISRDDSKNSIYLQMNSLKTEDTAVYYCHYVHYASASTVLPAFGVDAWGQGTTVTVSS VL: DIVMTQSPLSLPVTPGEPASISCQASQELVHMNRNTYLHWYQQKPGQAPRLLIYKVSNRFPGVPDRFSGSGSGTDFTLKISRVEAEDVGVYYCAQGTSVPFTFGQGTKLEIK
0 | H183/L072 VH W33K (antibody, name in Kabat numbering, V domains shown) VH: QVQLVESGGGLVQPGRSLRLSCAASGFTFSNAKMHWVRQAPGKGLEWVAQIKDKGNAYAAYYAPSVKGRFTISRDDSKNSIYLQMNSLKTEDTAVYYCHYVHYASASTVLPAFGVDAWGQGTTVTVSS VL: DIVMTQSPLSLPVTPGEPASISCQASQELVHMNRNTYLHWYQQKPGQAPRLLIYKVSNRFPGVPDRFSGSGSGTDFTLKISRVEAEDVGVYYCAQGTSVPFTFGQGTKLEIK

Further lines, the binder ahead of its results:

Binder | fold change of affinity [fold]
H183/L072 VH V100iL (antibody, name in Kabat numbering, V domains shown) VH: QVQLVESGGGLVQPGRSLRLSCAASGFTFSNAWMHWVRQAPGKGLEWVAQIKDKGNAYAAYYAPSVKGRFTISRDDSKNSIYLQMNSLKTEDTAVYYCHYVHYASASTVLPAFGLDAWGQGTTVTVSS VL: DIVMTQSPLSLPVTPGEPASISCQASQELVHMNRNTYLHWYQQKPGQAPRLLIYKVSNRFPGVPDRFSGSGSGTDFTLKISRVEAEDVGVYYCAQGTSVPFTFGQGTKLEIK | 1.8
H183/L072 VH W33D (antibody, name in Kabat numbering, V domains shown) VH: QVQLVESGGGLVQPGRSLRLSCAASGFTFSNADMHWVRQAPGKGLEWVAQIKDKGNAYAAYYAPSVKGRFTISRDDSKNSIYLQMNSLKTEDTAVYYCHYVHYASASTVLPAFGVDAWGQGTTVTVSS VL: DIVMTQSPLSLPVTPGEPASISCQASQELVHMNRNTYLHWYQQKPGQAPRLLIYKVSNRFPGVPDRFSGSGSGTDFTLKISRVEAEDVGVYYCAQGTSVPFTFGQGTKLEIK | 0
H183/L072 VH W33H (antibody, name in Kabat numbering, V domains shown) VH: QVQLVESGGGLVQPGRSLRLSCAASGFTFSNAHMHWVRQAPGKGLEWVAQIKDKGNAYAAYYAPSVKGRFTISRDDSKNSIYLQMNSLKTEDTAVYYCHYVHYASASTVLPAFGVDAWGQGTTVTVSS VL: DIVMTQSPLSLPVTPGEPASISCQASQELVHMNRNTYLHWYQQKPGQAPRLLIYKVSNRFPGVPDRFSGSGSGTDFTLKISRVEAEDVGVYYCAQGTSVPFTFGQGTKLEIK | 0
H183/L072 VH V100iM (antibody, name in Kabat numbering, V domains shown) VH: QVQLVESGGGLVQPGRSLRLSCAASGFTFSNAWMHWVRQAPGKGLEWVAQIKDKGNAYAAYYAPSVKGRFTISRDDSKNSIYLQMNSLKTEDTAVYYCHYVHYASASTVLPAFGMDAWGQGTTVTVSS VL: DIVMTQSPLSLPVTPGEPASISCQASQELVHMNRNTYLHWYQQKPGQAPRLLIYKVSNRFPGVPDRFSGSGSGTDFTLKISRVEAEDVGVYYCAQGTSVPFTFGQGTKLEIK | 5.6
H183/L072 VH V100iP (antibody, name in Kabat numbering, V domains shown) VH: QVQLVESGGGLVQPGRSLRLSCAASGFTFSNAWMHWVRQAPGKGLEWVAQIKDKGNAYAAYYAPSVKGRFTISRDDSKNSIYLQMNSLKTEDTAVYYCHYVHYASASTVLPAFGPDAWGQGTTVTVSS VL: DIVMTQSPLSLPVTPGEPASISCQASQELVHMNRNTYLHWYQQKPGQAPRLLIYKVSNRFPGVPDRFSGSGSGTDFTLKISRVEAEDVGVYYCAQGTSVPFTFGQGTKLEIK | 1.2
H183/L072 VH W33E (antibody, name in Kabat numbering, V domains shown) VH: QVQLVESGGGLVQPGRSLRLSCAASGFTFSNAEMHWVRQAPGKGLEWVAQIKDKGNAYAAYYAPSVKGRFTISRDDSKNSIYLQMNSLKTEDTAVYYCHYVHYASASTVLPAFGVDAWGQGTTVTVSS VL: DIVMTQSPLSLPVTPGEPASISCQASQELVHMNRNTYLHWYQQKPGQAPRLLIYKVSNRFPGVPDRFSGSGSGTDFTLKISRVEAEDVGVYYCAQGTSVPFTFGQGTKLEIK | 0
H183/L072 VH W33F (antibody, name in Kabat numbering, V domains shown) VH: QVQLVESGGGLVQPGRSLRLSCAASGFTFSNAFMHWVRQAPGKGLEWVAQIKDKGNAYAAYYAPSVKGRFTISRDDSKNSIYLQMNSLKTEDTAVYYCHYVHYASASTVLPAFGVDAWGQGTTVTVSS VL: DIVMTQSPLSLPVTPGEPASISCQASQELVHMNRNTYLHWYQQKPGQAPRLLIYKVSNRFPGVPDRFSGSGSGTDFTLKISRVEAEDVGVYYCAQGTSVPFTFGQGTKLEIK | 0.4
H183/L072 VH W33A (antibody, name in Kabat numbering, V domains shown) VH: QVQLVESGGGLVQPGRSLRLSCAASGFTFSNAAMHWVRQAPGKGLEWVAQIKDKGNAYAAYYAPSVKGRFTISRDDSKNSIYLQMNSLKTEDTAVYYCHYVHYASASTVLPAFGVDAWGQGTTVTVSS VL: DIVMTQSPLSLPVTPGEPASISCQASQELVHMNRNTYLHWYQQKPGQAPRLLIYKVSNRFPGVPDRFSGSGSGTDFTLKISRVEAEDVGVYYCAQGTSVPFTFGQGTKLEIK | 0
H183/L072 VH W33G (antibody, name in Kabat numbering, V domains shown) VH: QVQLVESGGGLVQPGRSLRLSCAASGFTFSNAGMHWVRQAPGKGLEWVAQIKDKGNAYAAYYAPSVKGRFTISRDDSKNSIYLQMNSLKTEDTAVYYCHYVHYASASTVLPAFGVDAWGQGTTVTVSS VL: DIVMTQSPLSLPVTPGEPASISCQASQELVHMNRNTYLHWYQQKPGQAPRLLIYKVSNRFPGVPDRFSGSGSGTDFTLKISRVEAEDVGVYYCAQGTSVPFTFGQGTKLEIK | 0
